Reference: the supplement of paper PMC9170038

System: K4 kissing-loop RNA reporter
Assay: apparent KD of K4 kissing-loop reporter; higher = weaker reporter binding
Conditions: Eterna round: R107
Experimental: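 RNA-MaP round R107: designed RNA switches with theophylline, tryptophan, arginine or FMN aptamers are transcribed on-chip within common flanks. They are titrated with a labelled K4 kissing-loop RNA reporter in RNA-MaP buffer (100 mM Tris pH 7.5, 80 mM KCl, 4 mM MgCl2), without ligand or with the indicated ligand. Median apparent KD per design.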

[1] = input ligand: theophylline 20 uM
[2] = input ligand: tryptophan 2.4 mM
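Note: bound reporter read as fluorescence of individual clusters on recovered sequencing chips by microscopy, with normalized cluster intensities fitted with a binding model.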

| Sequence | apparent KD of K4 kissing-loop reporter (input ligand: FMN 200 uM) | apparent KD of K4 kissing-loop reporter (input ligand: arginine 13.2 mM) | apparent KD of K4 kissing-loop reporter (input ligand: none) | apparent KD of K4 kissing-loop reporter [1] | apparent KD of K4 kissing-loop reporter [2] |
| --- | --- | --- | --- | --- | --- |
| CGUGAGUGAUGUUCACGAUGCUUCAAUCUAGAGGAUAUUCACGAUCGAAGAAGGCUGGACAAGUGCUGUCUCAUGACAGAUAAGG [FMN A SS t4] | 161 nM | 253 nM | 287 nM | 298 nM | 237 nM |
| CGUGGUGCCAAAGGAUAUCAUGCUAACGCGGUUGAGUGAUGUUCGACCCGAGAUAAGAGUGGGCAUUGAGAAGGUUGCGCAGAAG [theeternabot_sameState_KL_FMN_B_10] | 149 nM | 125 nM | 139 nM | 124 nM | 145 nM |
| CGUUGGAGUGAUGUUCCAGGUUGUACGGAUACCAGCCAAGCCAGCGGCCCUUGGCAGCCGACUAUUGCAGUGAUGUUGUGAUGCC [Same State Theophylline A GF 3] | 715 nM | 539 nM | 751 nM | 772 nM | 524 nM |
| CUACGACAGGAAGGAUAUCGUGUGGAGAGCAGUUAUUUAAAGGUAGUGAUGUUACAGGAGACUGUUCGAGAAGGUCCUCAGUUAC [theeternabot_exclusion_KL_FMN_B_32] | 104 nM | 98.6 nM | 119 nM | 93.3 nM | 103 nM |
| CUACGUCGAGCGGCCGCCACUAUGGGUUGCCAAGUAGUGAUGUUACUGAGCUUUUAAUGAUCCUUUAGGACCGGGCUUUGGGAGG [theeternabot_sameState_KL_Trp_B_46] | 281 nM | 203 nM | 227 nM | 269 nM | 174 nM |
| CUACUGAGUGAUGUUCAACAUAAUGUCGAUACCAGCACAUUUGCCUGCCCUUGGCAGCGACGCACCAGGACCUGAGAGUACUGGU [theeternabot_sameState_KL_Theo_A_13] | 567 nM | 637 nM | 623 nM | 612 nM | 410 nM |
| CUAUCCCGCCGUGUACGUAAUAUACGGUGCCGAGGACCGGUACGGCCGCCACUCGAUAAGCUUUGUCGGAGUGAUGUUCCGACCG [Maais] | 200 nM | 156 nM | 229 nM | 280 nM | 202 nM |
| CUCAAGUGAGGAUUUCGACAUCAAGAUGUGAAGGAUAUGUUACCAAACAGAAGGUCACGAUGUCAUCUAUGAGUGAUGUUCAGGA [theeternabot_sameState_KL_FMN_A_31] | 208 nM | 130 nM | 208 nM | 186 nM | 181 nM |
| CUCUGCUUCCCAGGGCUAGUGAUGUUAGCCCGAGGACCGGUACGGCCGCCACUCGAGUUAAGCAUCGACCGUGAAUGUUCGAAGC [theeternabot_exclusion_KL_Trp_A_48] | 138 nM | 143 nM | 139 nM | 179 nM | 140 nM |
| CUGACGCUGAUACGGUGGCCGGUGGUCGUGCGAGGACCGGUACGGCCGCCACUCGCAUGAGUGAUGUUCAUGUGUCGUCGUCGUC [#05 K4 Tryptophan A Exclusion] | 116 nM | 95.9 nM | 114 nM | 90.2 nM | 123 nM |
| CUGUUGUAGACUGAUACCAGUCUCACAGCAGAUGUGUGGGACUUAGUGAUGUUAAGUACCGACCCUUGGCAGCAGUCUACGACCU [Theo B SS t6] | 428 nM | 374 nM | 377 nM | 452 nM | 394 nM |
| CUUAUUAUGUCGGCCGCCACUCAAUGAUAAUCCACUAAAUUGCGAUUCAGUGAUGUUGAAGUGCUGAGGACCGGGACUAUUAACA [theeternabot_sameState_KL_Trp_B_22] | 541 nM | 206 nM | 345 nM | 214 nM | 316 nM |
| CUUCGAUUAACAGAUACCAGUCAUACUGGAGCCUCACUCGAGUGAGUGAUGUUCACUUGAGACCCUUGGCAGCUGUUAGUCGAAG [Theo B Ex t1a] | 92.3 nM | 86.2 nM | 89.6 nM | 106 nM | 93.4 nM |
| CUUCGUAAAGGCCCAGUGAUGUUGGGCACUCGAGGACCGGUACGGCCGCCACUCGCUCCCUAAGUCGCGUGCGUGGGCCACCGCC [Anala] | 115 nM | 97 nM | 99.1 nM | 94.5 nM | 104 nM |
| CUUGAAAUGACUGAUACCAGUGAAAAUAUAUGUAGUGAUGUUAUAUACUAAUUUAAUAAGCGCCCUUGGCAGCAGUAUGAAUUAU [AstrosExc-theB#17] | 861 nM | 516 nM | 868 nM | 764 nM | 702 nM |
| CUUGAAAUGACUGAUACCAGUGAAAAUCUAUGUAGUGAUGUUAUAUACUAAUUUAAUAAGCGCCCUUGGCAGCAGUAUGAAUUAU [AstrosExc-theB#18] | 657 nM | 260 nM | 532 nM | 561 nM | 445 nM |
| CUUGCCCUUUCGGCCGCCACUCCGAGUGAUGUUGGGAUGUUCGGUGCAGCCAUUUAGAUGUCAGUGAGGACCGGGAAAUUAUGCG [theeternabot_exclusion_KL_Trp_B_9] | 220 nM | 128 nM | 251 nM | 150 nM | 196 nM |
| CUUGGUCCACGAAGGAGCGCCGUGCAGUGAUGUUGCAGUCAGAUCGAGUGAUGUUUCGGGCGGCAGGUAGGUCGCGUGGCCCUUU [Excusion Arginine B GF 25] | 655 nM | 362 nM | 768 nM | 640 nM | 464 nM |
| CUUGGUCUACGAAGGAGCGCCGUGCAGUGAUGUUGCAGUCAGAUCGAGUGAUGUUUCGGGCGGCAGGUAGGUCGCGUGGCCCUCU [Excusion Arginine B GF 27] | 574 nM | 437 nM | 725 nM | 692 nM | 591 nM |
| CUUGUACAAGUGAUGUUUGUUAUAUCCGAAGGAGCGUCGUAAUAGACAGGUAGGUCGCGGAGUUAGCUGGUUUUUUUAACAGCUA [JR_Nu_SSArginiA_Sub030] | 621 nM | 421 nM | 679 nM | 472 nM | 584 nM |
| CUUUGGAGUGAUGUUCCAGGUUGUACGGAUACCAGCCAAGCCAGAGGCCCUUGGCAGCCGAGUAUUGCAGUGAUGUUGCGAUGGG [Same State Theophylline A GF 2] | 304 nM | 239 nM | 282 nM | 335 nM | 261 nM |
